Target: Rpa1 (yeast), the large subunit of the replication protein A (RPA) complex (S. cerevisiae (endogenous in yeast …, UniProt P22336 1-621))
Assay: cell-based or functional assay

Rpa1 (yeast), the large subunit of the replication protein A (RPA) complex (S. cerevisiae, sequence (P22336 whole entry, one chain of several): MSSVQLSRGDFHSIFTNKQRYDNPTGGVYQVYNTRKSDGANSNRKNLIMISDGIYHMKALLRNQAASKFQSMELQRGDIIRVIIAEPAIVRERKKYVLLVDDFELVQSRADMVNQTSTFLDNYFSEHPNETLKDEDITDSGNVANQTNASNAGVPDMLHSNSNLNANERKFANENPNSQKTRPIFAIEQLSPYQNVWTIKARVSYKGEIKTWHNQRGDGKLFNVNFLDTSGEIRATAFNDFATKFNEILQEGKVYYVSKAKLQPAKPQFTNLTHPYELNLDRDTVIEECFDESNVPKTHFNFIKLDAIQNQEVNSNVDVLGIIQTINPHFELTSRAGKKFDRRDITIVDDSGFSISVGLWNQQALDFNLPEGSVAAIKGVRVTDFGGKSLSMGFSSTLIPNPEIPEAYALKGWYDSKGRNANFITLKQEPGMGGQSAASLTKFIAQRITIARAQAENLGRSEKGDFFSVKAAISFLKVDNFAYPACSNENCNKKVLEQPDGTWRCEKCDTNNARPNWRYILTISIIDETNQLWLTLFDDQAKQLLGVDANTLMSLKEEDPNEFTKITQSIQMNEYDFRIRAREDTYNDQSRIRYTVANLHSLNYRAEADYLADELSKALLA

3′ flap cleavage by purified His-Rad1–Rad10 (200 nM) in the presence of purified yeast RPA (80 nM), in vitro endonuclease assay: ~2 fold
B1: His-Rad1 (natural protein, S. cerevisiae, UniProt P06777 1-1100, looked up)
chain: MSQLFYQGDSDDELQEELTRQTTQASQSSKIKNEDEPDDSNHLNEVENEDSKVLDDDAVLYPLIPNEPDDIETSKPNINDIRPVDIQLTLPLPFQQKVVENSLITEDALIIMGKGLGLLDIVANLLHVLATPTSINGQLKRALVLVLNAKPIDNVRIKEALEELSWFSNTGKDDDDTAVESDDELFERPFNVVTADSLSIEKRRKLYISGGILSITSRILIVDLLSGIVHPNRVTGMLVLNADSLRHNSNESFILEIYRSKNTWGFIKAFSEAPETFVMEFSPLRTKMKELRLKNVLLWPRFRVEVSSCLNATNKTSHNKVIEVKVSLTNSMSQIQFGLMECLKKCIAELSRKNPELALDWWNMENVLDINFIRSIDSVMVPNWHRISYESKQLVKDIRFLRHLLKMLVTSDAVDFFGEIQLSLDANKPSVSRKYSESPWLLVDEAQLVISYAKKRIFYKNEYTLEENPKWEQLIHILHDISHERMTNHLQGPTLVACSDNLTCLELAKVLNASNKKRGVRQVLLNKLKWYRKQREETKKLVKEVQSQDTFPENATLNVSSTFSKEQVTTKRRRTRGASQVAAVEKLRNAGTNVDMEVVFEDHKLSEEIKKGSGDDLDDGQEENAANDSKIFEIQEQENEILIDDGDAEFDNGELEYVGDLPQHITTHFNKDLWAEHCNEYEYVDRQDEILISTFKSLNDNCSLQEMMPSYIIMFEPDISFIRQIEVYKAIVKDLQPKVYFMYYGESIEEQSHLTAIKREKDAFTKLIRENANLSHHFETNEDLSHYKNLAERKLKLSKLRKSNTRNAGGQQGFHNLTQDVVIVDTREFNASLPGLLYRYGIRVIPCMLTVGDYVITPDICLERKSISDLIGSLQNNRLANQCKKMLKYYAYPTLLIEFDEGQSFSLEPFSERRNYKNKDISTVHPISSKLSQDEIQLKLAKLVLRFPTLKIIWSSSPLQTVNIILELKLGREQPDPSNAVILGTNKVRSDFNSTAKGLKDGDNESKFKRLLNVPGVSKIDYFNLRKKIKSFNKLQKLSWNEINELINDEDLTDRIYYFLRTEKEEQEQESTDENLESPGKTTDDNALHDHHNDVPEAPV

Reference: article PMC5966407, “Distinct roles of XPF-ERCC1 and Rad1-Rad10-Saw1 in replication-coupled and uncoupled inter-strand crosslink repair” (Nature Communications, 2018)
